One assay deals with T1, p75^NTR (Mus musculus, UniProt Q9Z0W1).
T1 construct: from tissue; host or cells: living mice (heart and other tissues) after transverse aortic constriction
T1 sequence (Q9Z0W1 32-427): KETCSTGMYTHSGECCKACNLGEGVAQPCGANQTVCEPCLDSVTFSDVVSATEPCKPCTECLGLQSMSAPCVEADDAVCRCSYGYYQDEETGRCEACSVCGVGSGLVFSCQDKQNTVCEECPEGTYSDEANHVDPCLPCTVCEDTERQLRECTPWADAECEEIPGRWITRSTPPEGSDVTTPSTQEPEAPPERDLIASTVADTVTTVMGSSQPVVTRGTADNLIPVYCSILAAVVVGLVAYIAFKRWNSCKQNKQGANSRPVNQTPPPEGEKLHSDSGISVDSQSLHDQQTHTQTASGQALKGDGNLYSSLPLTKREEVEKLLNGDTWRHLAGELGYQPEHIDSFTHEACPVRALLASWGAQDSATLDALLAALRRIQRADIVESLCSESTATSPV
Nature of the assay: Transverse aortic constriction (TAC) pressure overload/heart failure with chronic P75NTR antagonist infusion, echocardiography. It counts as in vivo. Conditions: TAC mice; chronic infusion for 5 weeks, instituted 1 week after TAC; 200 μg/kg/day s.c. osmotic pump; FIG. 3. The procedure: Transverse aortic constriction (TAC) was performed following a previously reported protocol (J. Clin. Invest., 2005; 115(5):1221-31; Circ. Res., 2010; 106(1):193-202; Antioxid Redox Signal 2014; 20(2):267-80). After induction of anesthesia and intubation, mice were placed on a volume ventilator (120 breaths/min, 1.2 ml/g/min) and anesthesia was maintained with […] isofluorane. The aortic arch was isolated and tied against a 27-gauge needle, resulting in a 65-70% constriction after the removal of the needle. The chest and skin were closed and animals extubated and allowed to fully recover. Sham-operated mice underwent the same operation except that after the aortic arch was isolated, no ligature was placed. The ALZET osmotic pump (Model 2004) with P75^NTR peptidic antagonist (200 μg/kg/day) or saline vehicle was placed subcutaneously one week after TAC. P75^NTR antagonistic cyclic peptide (CATDIKGAEC) (SEQ ID NO: 1) was synthesized at the Johns Hopkins Synthesis and Sequencing Facility. […]
In vivo cardiac morphology and function were assessed by serial M-mode echocardiography (Acuson Sequioa C256, 13 MHz transducer, Siemens, Pa.) performed in conscious mice. […] LV percent FS, EF and LV mass were calculated as described previously. […]

In the next assay the test system is control mouse hearts. As to the kind of experiment: LV function and coronary tone in Langendorff-perfused control mouse hearts infused with proBDNF. The text has this:
(§1) After anesthesia, hearts were harvested and the aorta cannulated and retrogradely perfused with Krebs-Henseleit (KH) buffer warmed and gassed with 95% O2 and 5% CO2, as reported previously (Antioxid. Redox Signal, 2013; 19(11):1185-97). Briefly, hearts were paced at 600 bpm (10 Hz, 4 ms duration, 4 V) and LV function monitored with a water-filled balloon, connected to a pressure transducer coupled to a continuous data recording system. After stabilization, in addition to LV function parameters, baseline values of coronary perfusion pressure (CPP) were obtained through a side-arm of the aortic cannula connected to a separate pressure transducer.

Assay [1] concerns isolated healthy mouse myocytes. As to the kind of experiment: Sarcomere shortening and whole Ca^2+ transient in isolated healthy mouse myocytes. The class given is cell-based. Conditions: directly applied to isolated healthy mouse myocytes. Here is the method:
Isolation of rat and mouse ventricular myocytes was carried out as previously described and approved by the Animal Care and Use Committee of Johns Hopkins University. Mice were anesthetized with intraperitoneal pentobarbital sodium (100 mg/kg). To assess for sarcomere shortening, cells were imaged using field stimulation (0.5 Hz) in an inverted fluorescence microscope (Diaphot 200; Nikon, Inc). Sarcomere length was measured by real-time Fourier transform (IonOptix MyoCam, CCCD100M). Twitch amplitude is expressed as a percentage of resting cell length. Twitch kinetics was quantified by measuring the time to peak shortening and the time from peak shortening to 50% relaxation. For whole Ca^2+ transient measurements, myocytes were loaded with the Ca^2+ indicator fluo-4/A M (Molecular Probes, 20 μM for 30 min) and Ca^2+ transients were measured under field-stimulation (0.5 Hz) in perfusion solution by confocal laser scanning microscope (LSM510, Carl Zeiss). Digital image analysis used customer-designed programs coded in Interactive Data Language (IDL).

The subject of assay [2] is isolated p75^NTR-/- whole hearts. Nature of the assay: LV function and coronary tone in Langendorff-perfused isolated p75^NTR-/- whole hearts infused with proBDNF. Conditions: hearts of mice lacking p75^NTR; FIG. 7. More on the design: species or system mouse.
From the text: as §1

Ends that are not written are not given here.

With CATDIKGAEC (also: cyclic), the LV ejection fraction result in the assay with p75^NTR is given as “preserved”.

B1: proBDNF: uncleaved (immature) neurotrophin, pro-brain derived neurotrophic factor, activates p75^NTR (protein, UniProt P23560 19-247, looked up)
pro-form: APMKEANIRGQGGLAYPGVRTHGTLESVNGPKAGSRGLTSLADTFEHVIEELLDEDQKVRPNEENNKDADLYTSRVMLSSQVPLEPPLLFLLEEYKNYLDAANMSMRVRRHSDPARRGELSVCDSISEWVTAADKKTAVDMSGGTVTVLEKVPVSKGQLKQYFYETKCNPMGYTKEGCRGIDKRHWNSQCRTTQSYVRALTMDSKKRIGWRFIRIDTSCVCTLTIKRGR
modifications: pro-form
For the molecule B1, the “coronary perfusion pressure (CPP), vasoconstriction” value with control mouse hearts (FIG. 4A) is “markedly higher”. Further, the “overall left-ventricle (LV) function: relaxation” value in the assay with control mouse hearts (FIG. 4F) is on record as “reducing”. Moreover, in the assay on control mouse hearts (FIGS. 4B, D and E), the “overall left-ventricle (LV) function: contractility” value is “reducing”. In assay [1] (FIGS. 5 and 6 lower panels), the “amplitude of the whole Ca^2+ transient” value is recorded as “reduces” and the “diastolic Ca^2+ levels” value is “rise”. Besides, the “contractility (extent of sarcomere shortening)” value in assay [1] (FIGS. 5 and 6 upper panels) was “reduces”. In assay [2], the LV function entry was “does not alter” and the coronary vascular tone result is “does not alter”.

The values are drawn from US10786543B2, “P75NTR antagonists and treatment of acute and chronic cardiac disease” (THE JOHNS HOPKINS UNIVERSITY, priority 2015, dated 2020).
